The substances below were run against recombinant human TNFα (RDI) (UniProt P01375).
recombinant human TNFα (RDI), sequence (P01375 77-233): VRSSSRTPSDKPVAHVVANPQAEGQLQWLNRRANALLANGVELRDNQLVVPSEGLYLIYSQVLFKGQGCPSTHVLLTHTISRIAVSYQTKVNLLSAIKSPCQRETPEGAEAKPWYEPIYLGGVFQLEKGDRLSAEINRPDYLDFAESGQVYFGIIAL
Plasmin, sequence (P00747 20-580): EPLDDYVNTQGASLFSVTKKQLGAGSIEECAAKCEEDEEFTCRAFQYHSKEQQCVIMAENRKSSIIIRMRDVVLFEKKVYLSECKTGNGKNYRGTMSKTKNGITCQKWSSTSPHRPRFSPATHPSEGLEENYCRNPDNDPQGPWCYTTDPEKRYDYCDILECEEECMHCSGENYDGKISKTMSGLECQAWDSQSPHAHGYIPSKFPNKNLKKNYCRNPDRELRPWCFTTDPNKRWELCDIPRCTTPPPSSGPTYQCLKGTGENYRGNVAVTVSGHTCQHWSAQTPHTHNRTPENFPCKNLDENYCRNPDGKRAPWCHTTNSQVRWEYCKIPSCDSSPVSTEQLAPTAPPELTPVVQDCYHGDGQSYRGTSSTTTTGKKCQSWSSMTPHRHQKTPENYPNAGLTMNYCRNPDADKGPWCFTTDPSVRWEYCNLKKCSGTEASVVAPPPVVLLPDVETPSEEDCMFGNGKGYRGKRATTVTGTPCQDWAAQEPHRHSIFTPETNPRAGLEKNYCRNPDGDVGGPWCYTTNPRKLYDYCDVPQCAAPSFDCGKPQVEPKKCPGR
Plasmin, sequence (P00747 581-810): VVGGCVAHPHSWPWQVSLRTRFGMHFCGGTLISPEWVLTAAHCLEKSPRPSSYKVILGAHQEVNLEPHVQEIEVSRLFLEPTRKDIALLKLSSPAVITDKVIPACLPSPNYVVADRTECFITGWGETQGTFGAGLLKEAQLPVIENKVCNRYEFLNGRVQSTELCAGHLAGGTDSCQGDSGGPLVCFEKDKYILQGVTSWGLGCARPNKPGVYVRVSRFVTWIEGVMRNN
MMP12, sequence (P39900 106-470): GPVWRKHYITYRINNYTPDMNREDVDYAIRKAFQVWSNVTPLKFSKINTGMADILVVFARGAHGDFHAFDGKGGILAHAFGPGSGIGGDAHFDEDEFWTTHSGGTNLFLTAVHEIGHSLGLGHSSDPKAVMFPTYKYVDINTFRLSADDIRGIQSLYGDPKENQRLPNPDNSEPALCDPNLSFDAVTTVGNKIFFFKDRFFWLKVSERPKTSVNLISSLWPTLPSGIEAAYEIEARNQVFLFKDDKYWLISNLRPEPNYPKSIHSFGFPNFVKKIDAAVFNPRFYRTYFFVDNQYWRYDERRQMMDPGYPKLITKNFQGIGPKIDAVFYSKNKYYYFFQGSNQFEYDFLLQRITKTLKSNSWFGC
For ADAM10, the “inactivation of TNFα (L929 cytotoxicity bioassay after overnight digestion)” value (“inactivation of TNFα” below) was “ADAM10 (under: Proteases that did not inactivate TNF)”.
For MMP3, the “inactivation of TNFα” value was “MMP3 (under: Proteases that did not inactivate TNF)”.
For MT1-MMP, the “log reduction in TNFα activity (L929 cytotoxicity bioassay after overnight digestion)” value (from here on “log reduction in TNFα activity”) was “MT1-MMP (0.86)”.
With Plasmin the “inactivation of TNFα” value was “Plasmin (under: Proteases that did not inactivate TNF)”.
HIV Protease was tested, and the “inactivation of TNFα” value was “HIV Protease (under: Proteases that did not inactivate TNF)”.
For Furin, the “inactivation of TNFα” value was “Furin (under: Proteases that did not inactivate TNF)”.
For ELASTASE, the “log reduction in TNFα activity” value was “ELASTASE (1.45)”.
With TRYPSIN the “log reduction in TNFα activity” value was “TRYPSIN (2.3)”.
Kallikrein5 was tested, and the “inactivation of TNFα” value was “Kallikrein5 (under: Proteases that did not inactivate TNF)”.
In the case of MT5-MMP, the “inactivation of TNFα” value is reported as “MT5-MMP (under: Proteases that did not inactivate TNF)”.
In the case of TACE, the “inactivation of TNFα” value is reported as “TACE (under: Proteases that did not inactivate TNF)”.
MMP12 was tested, and the “log reduction in TNFα activity” value was “MMP12 (0.65)”.
With Tryptase the “log reduction in TNFα activity” value was “Tryptase (0.62)”.
In the case of Urokinase, the “inactivation of TNFα” value is reported as “Urokinase (under: Proteases that did not inactivate TNF)”.
In the case of Enterokinase, the “inactivation of TNFα” value is reported as “Enterokinase (under: Proteases that did not inactivate TNF)”.
In the case of CHYMOTRYPSIN, the “log reduction in TNFα activity” value is reported as “CHYMOTRYPSIN (2.74)”.

Reference: patent publication US20040081647
